# Reference: patent US20040203101A1
# Biological target: rat nerve growth factor gamma (rat)
# Assay: kinetic constants for the interaction of BAIT with proteinases; method not described
# human BAIT (Brain-Associated Inhibitor of Tissue-Type Plasminogen Activator), mature protein expressed in baculovirus/Sf9 cells and purified, sequence (Q99574 19-410): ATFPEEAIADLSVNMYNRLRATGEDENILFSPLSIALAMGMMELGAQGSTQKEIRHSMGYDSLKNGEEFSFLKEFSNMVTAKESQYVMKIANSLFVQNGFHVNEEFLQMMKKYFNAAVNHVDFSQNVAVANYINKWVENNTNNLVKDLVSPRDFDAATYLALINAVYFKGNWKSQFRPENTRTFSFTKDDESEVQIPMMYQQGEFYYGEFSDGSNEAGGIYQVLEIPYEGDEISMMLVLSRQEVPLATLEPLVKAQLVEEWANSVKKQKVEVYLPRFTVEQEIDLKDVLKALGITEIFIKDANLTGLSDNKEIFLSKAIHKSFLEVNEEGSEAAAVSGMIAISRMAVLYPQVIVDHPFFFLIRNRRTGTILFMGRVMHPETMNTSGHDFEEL
substance,measurement,value
"human BAIT (Brain-Associated Inhibitor of Tissue-Type Plasminogen Activator), mature protein expressed in baculovirus/Sf9 cells and purified (from UniProt Q99574 19-410)",K,1.3 µM
same,k,0.0086 s⁻¹
same,ki,6500 M⁻¹ s⁻¹
